Data from PMC7431413, “Selective inhibition of STAT3 signaling using monobodies targeting the coiled-coil and N-terminal domains” (Nature Communications, 2020).
Where no end group is shown, it is not given here. [ ]: non-standard residue; d: D form. pY = N[C@@H](Cc1ccc(OP(=O)(O)O)cc1)C(=O)O

Biological target: T1, recombinant core fragment (CF) of STAT3 (human, UniProt P40763 127-722)
T1 construct: STAT3, human, core fragment (CC, DBD and SH2 domains), a.a; For the crystal the methods say 'TEV cleaved-MS3-6 and STAT3-CF'; it is not clear whether the tags of STAT3-CF were cut too; also called STAT3-CF; source: E. coli BL21 (DE3), pHBT vector, purified (Ni-NTA, SEC)
T1 sequence (P40763 127-722): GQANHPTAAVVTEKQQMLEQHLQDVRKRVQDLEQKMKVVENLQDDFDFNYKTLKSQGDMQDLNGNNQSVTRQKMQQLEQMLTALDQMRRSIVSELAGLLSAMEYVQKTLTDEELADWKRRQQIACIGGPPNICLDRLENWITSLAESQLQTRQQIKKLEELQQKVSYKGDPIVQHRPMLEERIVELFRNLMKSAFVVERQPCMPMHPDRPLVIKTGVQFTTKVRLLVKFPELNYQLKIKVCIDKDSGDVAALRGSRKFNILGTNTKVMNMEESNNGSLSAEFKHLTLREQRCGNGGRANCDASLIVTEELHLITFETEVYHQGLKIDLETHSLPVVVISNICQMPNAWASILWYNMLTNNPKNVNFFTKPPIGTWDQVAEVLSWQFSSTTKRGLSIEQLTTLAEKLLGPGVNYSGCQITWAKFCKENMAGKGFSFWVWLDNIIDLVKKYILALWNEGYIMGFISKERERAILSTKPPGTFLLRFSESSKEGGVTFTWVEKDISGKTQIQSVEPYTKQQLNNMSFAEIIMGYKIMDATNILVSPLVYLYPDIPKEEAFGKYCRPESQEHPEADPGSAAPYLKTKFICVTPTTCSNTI
Test: fluorescence polarisation; fluorescent gp130 pY-peptide and recombinant STAT3-CF (Supplementary Fig. 3a); TBS (50 mM Tris pH 7.5, 150 mM NaCl)
Conditions: both partners purified

Kd: 930 nM
B1: fluorescent pY-peptide encompassing the pY905 docking site of gp130 (peptide)
peptide: GMPKS[pY]LPQTVR-NH2
modifications: not fully specified (N-terminus)
notes: gp130, cytosolic tail around the Y905 docking site; also called gp130 pY-peptide; phospho-gp130 peptide; source: synthetic peptide
